Measurements taken from PMC2195994 (The Journal of Cell Biology, 2001).

T1: GST–IRS-58 (1–432) (human, UniProt Q9UQB8 1-432)
T1 sequence (looked up): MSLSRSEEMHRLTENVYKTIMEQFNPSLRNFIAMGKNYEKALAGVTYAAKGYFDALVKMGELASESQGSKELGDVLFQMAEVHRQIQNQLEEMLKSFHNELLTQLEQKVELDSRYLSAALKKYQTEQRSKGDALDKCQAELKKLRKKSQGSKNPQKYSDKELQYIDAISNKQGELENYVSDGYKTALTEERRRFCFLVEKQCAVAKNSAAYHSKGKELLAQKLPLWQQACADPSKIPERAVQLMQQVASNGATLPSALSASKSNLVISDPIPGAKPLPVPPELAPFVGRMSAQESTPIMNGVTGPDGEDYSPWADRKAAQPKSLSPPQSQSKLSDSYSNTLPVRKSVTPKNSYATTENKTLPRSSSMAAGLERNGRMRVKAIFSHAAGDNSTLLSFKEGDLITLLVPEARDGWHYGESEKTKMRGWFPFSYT

T2: GST–IRS-58 (1–358) (human, UniProt Q9UQB8 1-358)
T2 sequence (looked up): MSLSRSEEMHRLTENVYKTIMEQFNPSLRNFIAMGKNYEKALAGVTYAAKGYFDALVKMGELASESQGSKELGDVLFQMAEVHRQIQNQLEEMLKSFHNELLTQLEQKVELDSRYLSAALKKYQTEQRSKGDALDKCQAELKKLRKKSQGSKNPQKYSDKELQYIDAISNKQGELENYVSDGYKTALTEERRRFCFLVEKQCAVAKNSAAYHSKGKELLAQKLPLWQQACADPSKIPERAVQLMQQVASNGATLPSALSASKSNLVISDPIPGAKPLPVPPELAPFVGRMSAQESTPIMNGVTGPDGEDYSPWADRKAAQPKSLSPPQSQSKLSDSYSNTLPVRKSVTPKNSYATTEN

B1: Cdc42HsQ61L (natural protein)
chain: not shown
B2: IRS-58–GST fusion protein (202–305 amino acid residues) (domain or fragment, human, UniProt Q9UQB8 202-305, looked up)
chain: CAVAKNSAAYHSKGKELLAQKLPLWQQACADPSKIPERAVQLMQQVASNGATLPSALSASKSNLVISDPIPGAKPLPVPPELAPFVGRMSAQESTPIMNGVTGP

Key:
Assay in all cases: far-Western, overlay or dot blot
GST–IRS-58 (1–432) = target: T1, GST–IRS-58 (1–432)
GST–IRS-58 (1–358) = target: T2, GST–IRS-58 (1–358)
Cdc42HsQ61L = target: B1
Cdc42Hs L61C40 = Cdc42Hs L61C40 (human, UniProt P60953-1 1-191, L61 | C40)

Binder	binding result (GST–IRS-58 (1–432))	binding result (GST–IRS-58 (1–358))	binding result (Cdc42HsQ61L)	binding result (Cdc42Hs L61C40)
B1	binds	binds		
B2			binds	binds
